Reference: the supplement of paper PMC10567573

B1: TRAF3IP2 (parent)
chain: KQGSMNFRFIPVLFPNAKKEHVPT
B2: CFHR2 (parent)
chain: FVENGHSESSGQTHLEGDTVQIIC

Variants of: B1
Test: protein stability index of a GFP-peptide fusion (GPS, HEK-293T) (PSI 1-6); higher = more stable
Details: c terminus: a fixed tail appended
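Also: lentivirally expressed fusions sorted by FACS into six bins by GFP to DsRed ratio, PSI derived from sequencing read proportions per bin multiplied by bin number.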

Protein stability index of substitutions, site by site:
F9: R 2.84; S 3.2; T 3.66; V 2.77; W 2.31; Y 2.5
I10: A 1.98; C 2.3; D 3.37; E 3.16; F 2.11; G 2.76; H 1.67; K 2.56; L 2.23; M 2.23; N 2.9; P 3.42; Q 1.98; R 2.75; S 2.46; T 2.07; V 1.31; W 1.97; Y 2.29
P11: A 2.39; C 3.83; D 2.37; E 1.45; F 3.53; G 2.35; H 2.14; I 3.73; K 2.02; L 2.75; M 2.98; N 1.7; Q 1.85; R 2.14; S 1.36; T 1.86; V 2.91; W 2.25; Y 3.97
V12: A 2.31; C 2.35; D 2.17; E 2.76; F 2.14; G 1.96; H 2.39; I 2.14; K 2.39; L 2.12; M 1.86; N 2.84; P 2.33; Q 2.4; R 2.49; S 2.35; T 1.86; W 2.06; Y 1.97
L13: A 1.66; C 2.07; D 2.62; E 2.88; F 2.04; G 1.93; H 2.38; I 1.75; K 2.06; M 1.77; N 2.28; P 1.87; Q 2.02; R 1.93; S 2.14; T 1.86; V 2.01; W 2.09; Y 1.82
F14: A 1.88; C 1.87; D 2.77; E 3.19; G 2.29; H 2.12; I 1.36; K 2.62; L 1.68; M 2.56; N 2.06; P 2.71; Q 2.71; R 1.8; S 2.42; T 2.76; V 2.3; W 2.46; Y 1.95
P15: A 1.66; C 1.7; D 2.05; E 2.14; F 2.2; G 1.49; H 1.87; I 2.17; K 1.52; L 2.43; M 1.58; N 1.87; Q 1.41; R 1.92; S 1.75; T 2.54; V 2.56; W 2.67; Y 2.04
N16: A 1.75; C 1.89; D 1.58; E 1.85; F 1.63; G 2.08; H 1.66; I 2.29; K 1.72; L 1.66; M 1.88; P 1.92; Q 1.75; R 2.59; S 2.33; T 1.7; V 1.55; W 2; Y 1.8
A17: C 1.97; D 2.32; E 2.47; F 1.64; G 2.18; H 1.92; I 1.8; K 1.82; L 1.89; M 2.08; N 2; P 2.07; Q 2.38; R 2; S 2.21; T 2.86; V 1.61; W 1.74; Y 1.72
K18: A 1.76; C 1.71; D 2.34; E 2.15; F 1.77; G 2.04; H 1.89; I 2.27; L 1.61; M 1.76; N 1.93; P 1.77; Q 1.77; R 1.6; S 1.71; T 1.85; V 1.65; W 1.65; Y 1.84
K19: A 1.66; C 1.7; D 2.13; E 1.99; F 1.98; G 1.95; H 2.34; I 1.59; L 1.78; M 1.59; N 1.7; P 1.6; Q 1.84; R 1.59; S 1.98; T 1.75; V 1.65; W 1.65; Y 1.99
E20: A 2.11; C 1.85; D 2.33; F 1.93; G 2.24; H 2.03; I 2.19; K 1.68; L 1.67; M 2.3; N 2.15; P 2.12; Q 2.02; R 1.65; S 1.73; T 2.05; V 2.26; W 1.9; Y 1.77
H21: A 2.19; C 2.02; D 2.06; E 2.47; F 1.66; G 2.3; I 1.59; K 1.77; L 2.23; M 2.13; N 2.21; P 2.14; Q 1.78; R 1.72; S 2.07; T 2.15; V 1.94; W 1.81; Y 1.82
V22: A 2.22; C 2; D 2.89; E 2.19; F 2.16; G 2.4; H 1.73; I 2.11; K 2.61; L 2.09; M 2.24; N 2.23; P 1.82; Q 1.96; R 1.99; S 3; T 2.38; W 1.6; Y 1.91
P23: A 1.82; C 1.96; D 2.29; E 2.19; F 1.79; G 2.15; H 1.83; I 1.77; K 2; L 2.16; M 1.78; N 1.86; Q 1.69; R 2.05; S 1.88; T 2.27; V 1.4; W 2.58; Y 1.84
T24: A 2.25; C 1.94; D 2.16; E 2.35; F 1.75; G 2.14; H 1.89; I 1.7; K 2.19; L 1.67; M 1.87; N 1.97; P 2.14; Q 1.92; R 2.33; S 1.65; V 1.76; W 2.06; Y 2.5

Variants of: B2
Test: as above
Details: c terminus: a fixed tail appended

Protein stability index, by site and new letter:
F1: A 4.27; C 3.73; D 4.7; E 4.95; G 4.33; H 4.43; I 4; K 4.2; L 3.89; M 4.23; N 4.1; P 4.61; Q 4.37; R 3.83; S 4.14; T 3.96; V 3.92; W 3.86; Y 2.69
V2: A 4; C 4; D 4.19; E 4.54; F 3.62; G 3.62; H 3.82; I 3.72; K 4.01; L 3.59; M 3.12; N 4.16; P 3.88; Q 3.81; R 3.96; S 4.18; T 3.94; W 3.35; Y 3.44
E3: A 2.11; C 1.38; D 1.74; F 2.04; G 2.83
